Tests used:
[1] = molecular target: T1, CodY-His5 (Bacillus subtilis) (UniProt P39779); assay: EMSA; details: CodY assays with 10 mM ILV (plus 2 mM GTP in Fig 2 footprints); Kd = protein monomer concentration shifting 50% of DNA; buffer, salt, pH and temperature not …
T1 sequence: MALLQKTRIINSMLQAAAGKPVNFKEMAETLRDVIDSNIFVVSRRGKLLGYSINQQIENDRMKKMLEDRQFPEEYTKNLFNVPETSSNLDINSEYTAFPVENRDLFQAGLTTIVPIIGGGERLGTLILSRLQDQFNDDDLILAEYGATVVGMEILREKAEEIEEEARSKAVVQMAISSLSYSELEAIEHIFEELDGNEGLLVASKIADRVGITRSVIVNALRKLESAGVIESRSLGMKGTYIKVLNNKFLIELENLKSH

[2] = molecular target: T2, His6-ScoC (Bacillus subtilis) (UniProt P11065); assay: EMSA; details: CodY assays with 10 mM ILV (plus 2 mM GTP in Fig 2 footprints); Kd = protein monomer concentration shifting 50% of DNA; buffer, salt, pH and temperature not …
T2 sequence: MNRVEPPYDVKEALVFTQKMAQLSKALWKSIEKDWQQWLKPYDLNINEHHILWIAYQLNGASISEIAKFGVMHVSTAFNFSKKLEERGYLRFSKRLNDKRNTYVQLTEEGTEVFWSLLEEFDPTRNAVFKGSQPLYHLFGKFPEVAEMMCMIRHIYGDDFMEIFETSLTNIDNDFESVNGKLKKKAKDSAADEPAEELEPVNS

Substance | Kd [1] [nM] | Kd [2] [nM]
braB242p+ | 3 | –
TCGTTTCGTCATATTATCTGACAATTAATTGACAGAATATTTTAACATAATTATTAGGAGGATT (double strand) [braB64] | 5 | 150
braB156p+ (gel shift) | 75 | –
braB144p+ (gel shift) | 4 | –

— publication PMC4608796
